According to patent US20210189342A1, “COMPOSITIONS AND METHODS FOR MODULATING MONOCYTE AND MACROPHAGE INFLAMMATORY PHENOTYPES AND IMMUNOTHERAPY USES THEREOF” (Verseau Therapeutics, Inc., priority 2018, published 2021):

Assays:
FERMT3 = experiment: siRNA dose response, FERMT3 mRNA knockdown, bDNA Assay; type: cell-based, human; details: THP-1, 24 hr
Protocol: Dose response curves for siRNAs were generated in vitro using a variety of cell lines according to Table 4.
Briefly, cells were seeded in 96-well plates and reverse transfected with siRNA, Lipofectamine® 2000 (0.5 uL/well; ThermoFisher), and, in some cases, a reporter plasmid (50 ng/well). The reporter plasmid (psiCHECK™-2, Promega) encoded both firefly luciferase and the gene of interest fused to renilla luciferase; silencing of the gene of interest results in proportional silencing of renilla luciferase but leaves firefly luciferase unaffected as an internal control.
After 24 hr incubation at 37° C., mRNA knockdown was measured using an endpoint assay. For targets without a reporter plasmid, a branched DNA (bDNA) assay was performed according to the manufacturer's instructions (QuantiGene® Singleplex Gene Expression Assay, ThermoFisher) to measure both the target gene and GAPDH (housekeeping gene) mRNA. Data are plotted as siRNA concentration (nM) vs. remaining mRNA (ratio of target gene to GAPDH, normalized to mock siRNA-transfected cells). For targets with a reporter plasmid, a Dual-Glo® Luciferase Assay was performed according to the manufacturer's instructions (Promega) to measure firefly and renilla luciferase expression. Data are plotted as siRNA concentration (nM) vs. remaining mRNA (ratio of renilla to firefly luminescence, normalized to mock siRNA-transfected cells).
For all dose response curves, a 4-parameter logistic model was applied to determine the IC50 of each siRNA sequence (Table 5 and FIG. 2). Data shown in Table 5 and FIG. 2 represent the mean of quadruplicates, +/−standard deviation.

M2 macrophages [1] = experiment: M2 macrophage polarization, antibodies added only during the last two days, cytokines; type: cell-based, human; details: 10 ug/mL (77, 78, 81-84 at 1 ug/mL), FIGS. 4D-4G
Protocol: Briefly, monocytes were isolated from whole blood of fresh donors by Ficoll separation with RosetteSep™ Human Monocyte Enrichment Cocktail (Stemcell Techhnologies, Vancouver Canada) according to the manufacturer's instructions. Isolated monocytes were arrayed in 24-well plates overnight in Iscove's Modified Dubelcos Media ([…]) (ThermoFisher) media containing 10% fetal bovine serum and non-adherent cells were washed off after 24 hours. Monocytes were differentiated into macrophages by culturing for 6 days in IMDM 10% FBS plus 50 ng/ml human M-CSF for M2 macrophages, or 50 ng/ml GM-CSF (Biolegend, San Diego, Calif.) for M1 macrophages. M1 macrophages were activated on day 6 with IFN-gamma and LPS, whereas M2 macrophages were polarized on day 6 with 20 ng/ml IL-10 and activated on day 7 with 100 ng/ml LPS. […] Cells were assessed for expression of M1 and M2 markers as described above and cell free supernatants were collected for analysis. Data are representative of at least 3-4 healthy donors.
Beyond phenotypic surface markers, M1 (such as Type 1) and M2 (such as Type 2) macrophages produce different cytokines and chemokines. For example, M1 macrophages produce more pro-inflammatory cytokines, including but not limited to, GM-CSF, IL-12, and TNF alpha, whereas M2 macrophages produce more pro-tumorigenic and immunosuppressive cytokines, such as VEGF, IL-10, and TGFb. […]

M2 macrophages [2] = experiment: macrophage differentiation assay with antibodies, M1 and M2 markers; type: cell-based; details: primary human macrophages under M2 skewing; antibody on day 1, 3 and 7; FIG. 4
Description: Monocytes were differentiated in vitro to M1-like (Type 1) and/or M2-like (Type 2) phenotypes (Ries et a. (2014) Cancer Cell 25:846-859; Vogel et al. (2014) Immunobiol. 219:695-703). In order to differentiate monocytes into M1 versus M2 phenotypes monocytes were isolated from whole blood of healthy donors by Ficoll separation with RosetteSep™ Human Monocyte Enrichment Cocktail (Stemcell Technologies, Vancouver, Canada) according to the manufacturer's instructions. Isolated monocytes were arrayed in 24-well plates overnight in IMDM Media containing 10% fetal bovine serum and non-adherent cells were washed off after 24 hours. […] Expression of M1 and M2 macrophage markers and surface expressed targets was assessed by flow cytometry. […]
Labeled cells were washed twice with FACS buffer and fixed with PBS+2% paraformaldehyde for flow cytometry analysis on an Attune™ flow cytometer (ThermoFisher). Data were analyzed via FlowJo software. Morphology was assessed via microscopy.
Briefly, monocytes were isolated from whole blood of fresh donors by Ficoll separation with RosetteSep™ Human Monocyte Enrichment Cocktail (Stemcell Techhnologies, Vancouver Canada) according to the manufacturer's instructions. […] Cells were assessed for expression of M1 and M2 markers as described above and cell free supernatants were collected for analysis. […]

Molecule: XD-09708: siRNA targeting FERMT3 (sense 5'-gcuGccGAAuuGuacAcGAdTsdT-3'; antisense 5'-UCGUGuAcAAUUCGGcAGCdTsdT-3'; RNA with 2'-O-methyl and phosphorothioate modifications, case key not given here, as printed in the source, key not given here)
- IC50 (FERMT3): 0.012 nM

Molecule: XD-09709: siRNA targeting FERMT3 (sense 5'-guAGcuAcAGGAugAuGAAdTsdT-3'; antisense 5'-UUcAUcAUCCUGuAGCuACdTsdT-3'; RNA with 2'-O-methyl and phosphorothioate modifications, case key not given here, as printed in the source, key not given here)
- IC50 (FERMT3): 0.048 nM

B1: Ab 8: recombinant human IgG4 (S228P) chimera, kappa light chain; variable regions in Table 6 (antibody, V domains shown)
VH: QVQLQQSGPGLVKPSQTLSLTCAISGDSVSSNIAAWHWIRLSPSRGLEWLGRTYYRRSKWNYDYALSVKSRININPDTSKNLFSLQLNSVTPEDTAVYYCTRGGGRAHSAWGQGTLVTVSS
VL: EIVLTQSPGTLSVSPGERATLSCRASQSVSRSHLAWYQQKPGQAPRLLIFGASSRATGIPDRFSGSGSGTDFTLTISRLEPEDFAVYYCQQYGRPGVTFGQGTKVEIK
modifications: human IgG4 S228P constant regions
- polarization of M2 macrophages to a more M1-like state, increase in pro-inflammatory cytokines (M2 macrophages [1]): dramatically effect polarization of M2 macrophages to a more M1-like state
- effect on macrophage phenotypic marker sets (classical and novel biomarkers), reversal of skewing towards M2 (M2 macrophages [2]): dose-titratable effect

B2: Ab 18: recombinant human IgG4 (S228P) chimera, lambda light chain; variable regions in Table 6 (antibody, V domains shown)
VH: EVQLLESGGGLVRPGGSLRLSCAASGFTFSSYAMSWVRQAPGKGLEWVSAISGSGGSTYYADSVKGRFTISRDNSKNTLYLQMNSLRAEDTAVYYCARDKRLTYWGQGTMVTVSS
VL: QSVVTQPPSVSAAPGQKVTISCSGSSSNIGNNYVSWYQQLPGTAPKLLIYDNNKRPSGIPDRFSGSKSGTSATLGITGLQTGDEADYYCGTWDSSLSARVFGGGTKVTVL
modifications: human IgG4 S228P constant regions
- polarization of M2 macrophages to a more M1-like state, increase in pro-inflammatory cytokines (M2 macrophages [1]): dramatically effect polarization of M2 macrophages to a more M1-like state
- effect on macrophage phenotypic marker sets (classical and novel biomarkers), reversal of skewing towards M2 (M2 macrophages [2]): dose-titratable effect
